Test results from paper PMC7885793 (Biochemistry, 2019).

Tests used:
Experiment in all cases: cell-based or functional assay
PLCβ3-Δ892 ΔXY2 = molecular target: T1, PLCβ3-Δ892 ΔXY2 (Homo sapiens, UniProt Q01970 10-892, ΔXY2 (residues 471–584))
T1 sequence (looked up): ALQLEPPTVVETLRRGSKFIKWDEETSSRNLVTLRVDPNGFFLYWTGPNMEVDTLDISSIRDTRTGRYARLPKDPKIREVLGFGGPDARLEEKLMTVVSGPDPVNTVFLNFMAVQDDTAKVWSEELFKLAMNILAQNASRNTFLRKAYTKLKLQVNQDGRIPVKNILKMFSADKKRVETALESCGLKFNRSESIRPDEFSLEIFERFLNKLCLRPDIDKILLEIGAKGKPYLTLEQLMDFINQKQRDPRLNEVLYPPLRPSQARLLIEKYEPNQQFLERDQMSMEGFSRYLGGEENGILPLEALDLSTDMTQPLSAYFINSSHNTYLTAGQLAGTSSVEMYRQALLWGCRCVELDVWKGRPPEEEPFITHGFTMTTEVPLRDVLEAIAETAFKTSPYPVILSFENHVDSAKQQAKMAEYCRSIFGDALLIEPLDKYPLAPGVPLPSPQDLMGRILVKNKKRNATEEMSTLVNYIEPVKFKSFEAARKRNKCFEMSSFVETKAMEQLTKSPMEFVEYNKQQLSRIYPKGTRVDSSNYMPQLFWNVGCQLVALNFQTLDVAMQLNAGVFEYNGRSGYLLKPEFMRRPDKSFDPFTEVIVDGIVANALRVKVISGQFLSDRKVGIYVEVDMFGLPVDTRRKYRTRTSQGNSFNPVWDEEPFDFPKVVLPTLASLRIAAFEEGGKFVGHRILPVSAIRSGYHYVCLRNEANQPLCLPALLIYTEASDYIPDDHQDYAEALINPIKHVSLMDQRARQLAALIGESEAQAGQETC

[1] = molecular target: T2, Homo sapiens PLCβ3 (residues 10–1234) (Homo sapiens, UniProt Q01970 10-1234)
T2 sequence (looked up): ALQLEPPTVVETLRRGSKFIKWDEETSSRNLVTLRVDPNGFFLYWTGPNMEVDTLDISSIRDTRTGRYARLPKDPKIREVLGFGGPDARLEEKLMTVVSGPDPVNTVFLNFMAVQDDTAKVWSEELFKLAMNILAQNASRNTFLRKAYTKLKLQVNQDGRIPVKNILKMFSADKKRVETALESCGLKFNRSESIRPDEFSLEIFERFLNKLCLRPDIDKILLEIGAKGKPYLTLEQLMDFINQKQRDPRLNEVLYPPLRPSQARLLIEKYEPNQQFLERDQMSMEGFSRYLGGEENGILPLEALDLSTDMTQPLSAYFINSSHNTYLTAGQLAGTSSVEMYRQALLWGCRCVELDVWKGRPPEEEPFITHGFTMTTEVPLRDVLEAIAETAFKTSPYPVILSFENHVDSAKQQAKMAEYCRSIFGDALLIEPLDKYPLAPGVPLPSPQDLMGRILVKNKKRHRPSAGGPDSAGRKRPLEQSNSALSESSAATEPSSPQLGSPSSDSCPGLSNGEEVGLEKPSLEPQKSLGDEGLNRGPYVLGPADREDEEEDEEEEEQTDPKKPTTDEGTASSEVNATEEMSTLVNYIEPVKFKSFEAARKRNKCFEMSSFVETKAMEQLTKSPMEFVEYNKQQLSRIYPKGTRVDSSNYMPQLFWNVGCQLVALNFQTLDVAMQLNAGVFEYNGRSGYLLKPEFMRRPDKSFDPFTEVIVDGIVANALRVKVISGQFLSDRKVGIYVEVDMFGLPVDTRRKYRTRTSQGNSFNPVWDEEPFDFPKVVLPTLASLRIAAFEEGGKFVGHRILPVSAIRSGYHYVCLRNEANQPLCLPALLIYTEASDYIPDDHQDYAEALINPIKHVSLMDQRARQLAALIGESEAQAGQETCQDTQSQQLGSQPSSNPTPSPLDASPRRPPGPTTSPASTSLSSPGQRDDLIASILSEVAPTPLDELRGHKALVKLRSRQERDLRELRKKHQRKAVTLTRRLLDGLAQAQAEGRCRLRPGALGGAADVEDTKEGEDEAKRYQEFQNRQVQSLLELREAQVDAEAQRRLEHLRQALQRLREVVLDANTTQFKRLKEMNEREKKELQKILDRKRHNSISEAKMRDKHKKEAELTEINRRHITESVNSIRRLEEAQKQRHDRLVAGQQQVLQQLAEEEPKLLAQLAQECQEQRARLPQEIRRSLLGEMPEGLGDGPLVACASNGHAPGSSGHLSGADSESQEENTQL

PLCβ3-Δ892 ΔXY1 = molecular target: T3, PLCβ3-Δ892 ΔXY1 (Homo sapiens, UniProt Q01970 10-892, ΔXY1 (residues 471–569))
T3 sequence (looked up): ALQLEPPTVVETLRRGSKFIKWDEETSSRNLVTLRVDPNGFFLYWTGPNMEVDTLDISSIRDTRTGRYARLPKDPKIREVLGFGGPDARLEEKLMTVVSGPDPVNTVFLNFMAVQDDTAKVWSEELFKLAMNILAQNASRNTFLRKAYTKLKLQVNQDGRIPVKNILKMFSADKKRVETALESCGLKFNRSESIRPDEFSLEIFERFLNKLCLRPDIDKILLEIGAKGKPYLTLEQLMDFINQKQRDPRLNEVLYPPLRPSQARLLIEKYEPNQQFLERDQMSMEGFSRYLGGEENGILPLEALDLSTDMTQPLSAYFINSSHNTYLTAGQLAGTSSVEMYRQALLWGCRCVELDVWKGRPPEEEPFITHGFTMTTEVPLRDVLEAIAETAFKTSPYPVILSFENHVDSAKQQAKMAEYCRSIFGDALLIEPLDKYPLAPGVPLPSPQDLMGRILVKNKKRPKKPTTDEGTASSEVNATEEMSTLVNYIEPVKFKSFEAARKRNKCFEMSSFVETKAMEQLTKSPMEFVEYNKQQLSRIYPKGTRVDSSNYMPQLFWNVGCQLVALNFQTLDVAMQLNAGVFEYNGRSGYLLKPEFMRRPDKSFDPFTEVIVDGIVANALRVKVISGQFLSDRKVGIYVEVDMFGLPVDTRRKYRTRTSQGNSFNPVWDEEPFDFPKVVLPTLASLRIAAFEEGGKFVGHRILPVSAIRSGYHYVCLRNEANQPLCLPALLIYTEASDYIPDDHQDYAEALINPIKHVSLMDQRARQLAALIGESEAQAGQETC

B1: Activated Gαq (Gαq·GDP-ALF4^−) (natural protein, murine, UniProt P21279 7-359, looked up)
chain: MACCLSEEAKEARRINDEIERQLRRDKRDARRELKLLLLGTGESGKSTFIKQMRIIHGSGYSDEDKRGFTKLVYQNIFTAMQAMIRAMDTLKIPYKYEHNKAHAQLVREVDVEKVSAFENPYVDAIKSLWNDPGIQECYDRRREYQLSDSTKYYLNDLDRVADPSYLPTQQDVLRVRVPTTGIIEYPFDLQSVIFRMVDVGGQRSERRKWIHCFENVTSIMFLVALSEYDQVLVESDNENRMEESKALFRTIITYPWFQNSSVILFLNKKDLLEEKIMYSHLVDYFPEYDGPQRDAQAAREFILKMFVDLNPDSDKIIYSHFTCATDTENIRFVFAAVKDTILQLNLKEYNLV
How did the “x-fold maximum activity over basal (complex against the PLCβ3 variant alone)” value (shortened to “x-fold maximum activity over basal”) (PLCβ3-Δ892 ΔXY2) turn out when B1 was run?
The value was 3 x-fold.

What about the “x-fold maximum activity over basal” value [1] of the same binder?
The value was 8 x-fold.

What about the “x-fold maximum activity over basal” value (PLCβ3-Δ892 ΔXY1) of the same binder?
The value was 2 x-fold.
